Results taken from patent publication US20240277770A1 (Genentech, published 2024).

What was measured:
HLA-A*01:01 = target: T1, HLA-A*01:01 (human); experiment: HLA-I IP (W6/32) and targeted MS of monoallelic HMy2.C1R cells expressing the polyantigen cassette
T1 construct: whole, on cells; MHC class I on a monoallelic cell line

HLA-A*11:01 [1] = target: T2, HLA-A*11:01 (human); experiment: HLA-I IP and targeted MS with hipMHC standards, A*11:01 monoallelic C1R cells (FIG. 12B)
T2 construct: whole, on cells; MHC class I on a monoallelic cell line

HLA-A*11:01 [2] = target: T2, HLA-A*11:01; experiment: HLA-I IP (W6/32) and targeted MS of monoallelic HMy2.C1R cells expressing the polyantigen cassette
HLA-A*03:01 = target: T3, HLA-A*03:01 (human); experiment: as above
T3 construct: whole, on cells; MHC class I on a monoallelic cell line

HLA-A*02:01 = target: T4, HLA-A*02:01 (human); experiment: HLA-I IP and untargeted MS of monoallelic cells
T4 construct: whole, on cells; MHC class I on a monoallelic cell line (HMy2.C1R)

HLA-B*07:02 = target: T5, HLA-B*07:02 (human); experiment: HLA-I IP (W6/32) and targeted MS of monoallelic HMy2.C1R cells expressing the polyantigen cassette
T5 construct: whole, on cells; MHC class I on a monoallelic cell line

HLA-B*35:01 = target: T6, HLA-B*35:01 (human); experiment: as above
T6 construct: whole, on cells; MHC class I on a monoallelic cell line

HLA-B*08:01 = target: T7, HLA-B*08:01 (human); experiment: as above
T7 construct: whole, on cells; MHC class I on a monoallelic cell line

HLA-C*05:01 = target: T8, HLA-C*05:01 (human); experiment: as above
T8 construct: whole, on cells; MHC class I on a monoallelic cell line

HLA-C*06:02 = target: T9, HLA-C*06:02 (human); experiment: as above
T9 construct: whole, on cells; MHC class I on a monoallelic cell line

HLA-C*07:01 = target: T10, HLA-C*07:01 (human); experiment: as above
T10 construct: whole, on cells; MHC class I on a monoallelic cell line

HLA-C*07:02 = target: T11, HLA-C*07:02 (human); experiment: as above
T11 construct: whole, on cells; MHC class I on a monoallelic cell line

B1: YTDVSNMSH (peptide)
peptide: YTDVSNMSH
binding result (HLA-A*01:01): binds

B2: VVGAGGVGK (peptide)
peptide: VVGAGGVGK
notes: also called KRAS G12 wild type 9-mer
binding result (HLA-A*11:01 [1]): binds

B3: VVGAAGVGK (peptide)
peptide: VVGAAGVGK
binding result (HLA-A*11:01 [2]): binds

B4: VVGACGVGK (peptide)
peptide: VVGACGVGK
binding result (HLA-A*11:01 [2]): binds

B5: VVGADGVGK (peptide)
peptide: VVGADGVGK
binding result (HLA-A*11:01 [2]): binds

B6: VVGAGCVGK (peptide)
peptide: VVGAGCVGK
binding result (HLA-A*11:01 [2]): binds

B7: VVGAGDVGK (peptide)
peptide: VVGAGDVGK
binding result (HLA-A*03:01): binds
binding result (HLA-A*11:01 [2]): binds

B8: VVGASGVGK (peptide)
peptide: VVGASGVGK
binding result (HLA-A*03:01): binds
binding result (HLA-A*11:01 [2]): binds

B9: VVVGAGGVGK (peptide)
peptide: VVVGAGGVGK
notes: also called KRAS G12 wild type 10-mer
binding result (HLA-A*11:01 [1]): binds

B10: VVVGAGCVGK (peptide)
peptide: VVVGAGCVGK
binding result (HLA-A*11:01 [2]): binds

B11: VVVGARGVGK (peptide)
peptide: VVVGARGVGK
binding result (HLA-A*03:01): binds
binding result (HLA-A*11:01 [2]): binds

B12: VVVGASGVGK (peptide)
peptide: VVVGASGVGK
binding result (HLA-A*03:01): binds
binding result (HLA-A*11:01 [2]): binds

B13: VVVGAVGVGK (peptide)
peptide: VVVGAVGVGK
binding result (HLA-A*03:01): binds
binding result (HLA-A*11:01 [2]): binds

B14: IMSDSNYVV (peptide)
peptide: IMSDSNYVV
binding result (HLA-A*02:01): binds

B15: ASGAFGTVYK (peptide)
peptide: ASGAFGTVYK
binding result (HLA-A*03:01): binds
binding result (HLA-A*11:01 [2]): binds

B16: KITDFGRAK (peptide)
peptide: KITDFGRAK
binding result (HLA-A*03:01): binds

B17: VVVGAAGVGK (peptide)
peptide: VVVGAAGVGK
binding result (HLA-A*03:01): binds
binding result (HLA-A*11:01 [2]): binds

B18: VVVGADGVGK (peptide)
peptide: VVVGADGVGK
binding result (HLA-A*03:01): binds
binding result (HLA-A*11:01 [2]): binds

B19: YTDVSNMSHLA (peptide)
peptide: YTDVSNMSHLA
binding result (HLA-A*01:01): binds

B20: ASGAFGTVY (peptide)
peptide: ASGAFGTVY
binding result (HLA-A*11:01 [2]): binds

B21: LASGAFGTVYK (peptide)
peptide: LASGAFGTVYK
binding result (HLA-A*11:01 [2]): binds

B22: ILDTAGKEEY (peptide)
peptide: ILDTAGKEEY
binding result (HLA-A*01:01): binds

B23: ILDTAGREEY (peptide)
peptide: ILDTAGREEY
binding result (HLA-A*01:01): binds

B24: LDTAGKEEY (peptide)
peptide: LDTAGKEEY
binding result (HLA-A*01:01): binds

B25: STRDPLSEITK (peptide)
peptide: STRDPLSEITK
binding result (HLA-A*11:01 [2]): binds

B26: SCMGGMNQR (peptide)
peptide: SCMGGMNQR
binding result (HLA-A*11:01 [2]): binds

B27: MPFGSLLDY (peptide)
peptide: MPFGSLLDY
binding result (HLA-B*07:02): binds
binding result (HLA-B*35:01): binds

B28: RSKRNSLAL (peptide)
peptide: RSKRNSLAL
binding result (HLA-B*07:02): binds

B29: CPHRPILQA (peptide)
peptide: CPHRPILQA
binding result (HLA-B*07:02): binds

B30: KPIIIGCH (peptide)
peptide: KPIIIGCH
binding result (HLA-B*07:02): binds

B31: SPNGTIQNIL (peptide)
peptide: SPNGTIQNIL
binding result (HLA-B*07:02): binds

B32: DTAGREEY (peptide)
peptide: DTAGREEY
binding result (HLA-A*01:01): binds

B33: GARGVGKSA (peptide)
peptide: GARGVGKSA
binding result (HLA-B*07:02): binds

B34: GARGVGKSAL (peptide)
peptide: GARGVGKSAL
binding result (HLA-B*07:02): binds

B35: RPIPIKYKAM (peptide)
peptide: RPIPIKYKAM
binding result (HLA-B*07:02): binds

B36: KMRRKMSP (peptide)
peptide: KMRRKMSP
binding result (HLA-B*08:01): binds

B37: FKKIKVLAS (peptide)
peptide: FKKIKVLAS
binding result (HLA-B*08:01): binds

B38: FGRAKLLGA (peptide)
peptide: FGRAKLLGA
binding result (HLA-B*08:01): binds

B39: MIKRSKRNSL (peptide)
peptide: MIKRSKRNSL
binding result (HLA-B*08:01): binds

B40: SKRNSLAL (peptide)
peptide: SKRNSLAL
binding result (HLA-B*08:01): binds

B41: ERCPHRPIL (peptide)
peptide: ERCPHRPIL
binding result (HLA-B*08:01): binds

B42: FGLARYIM (peptide)
peptide: FGLARYIM
binding result (HLA-B*08:01): binds

B43: WVKPIIIGC (peptide)
peptide: WVKPIIIGC
binding result (HLA-B*08:01): binds

B44: DGVGKSAL (peptide)
peptide: DGVGKSAL
binding result (HLA-B*08:01): binds

B45: AGREEYSAM (peptide)
peptide: AGREEYSAM
binding result (HLA-B*08:01): binds

B46: FMKQMNDAL (peptide)
peptide: FMKQMNDAL
binding result (HLA-B*08:01): binds

B47: IIIGGHAY (peptide)
peptide: IIIGGHAY
binding result (HLA-B*35:01): binds

B48: IIIGHHAY (peptide)
peptide: IIIGHHAY
binding result (HLA-B*35:01): binds

B49: PIIIGHHAY (peptide)
peptide: PIIIGHHAY
binding result (HLA-B*35:01): binds

B50: VKPIIIGHHAY (peptide)
peptide: VKPIIIGHHAY
binding result (HLA-B*35:01): binds

B51: IGDFGLATM (peptide)
peptide: IGDFGLATM
binding result (HLA-C*05:01): binds

B52: STDVGFCTL (peptide)
peptide: STDVGFCTL
binding result (HLA-C*05:01): binds

B53: GADGVGKSAL (peptide)
peptide: GADGVGKSAL
binding result (HLA-C*05:01): binds

B54: CNTTARAFAVV (peptide)
peptide: CNTTARAFAVV
binding result (HLA-C*05:01): binds

B55: GRNSFEVCV (peptide)
peptide: GRNSFEVCV
binding result (HLA-C*05:01): binds

B56: KRNSLALSL (peptide)
peptide: KRNSLALSL
binding result (HLA-C*06:02): binds
binding result (HLA-C*07:01): binds
binding result (HLA-C*07:02): binds

B57: GRNSFEVHV (peptide)
peptide: GRNSFEVHV
binding result (HLA-C*06:02): binds

B58: EKSRWSGSHQF (peptide)
peptide: EKSRWSGSHQF
binding result (HLA-C*07:01): binds
